Key:
[1] = biological target: T1, hAng-2FD-mFc I-434-M (Homo sapiens, UniProt O15123, I434M); assay: Ang-2FD-mFc point mutant binding experiment (SPR), I-434-M; details: I-434-M mutant captured; antibody/peptibody at 100 nM; 25° C.
T1 construct: made in house
Excerpt: (§1) To further characterize binding between hAng2 and anti-hAng2 mAbs of the invention, seven variant hAng2-FD-mFc proteins were generated, each containing a single point mutation. Amino acids selected for mutation were based on the difference in sequence between hAng-2 and hAng-1 in the region that interacts with hTie-2 (FIG. 1). In particular, amino acids within the fibrinogen-like domain (FD) of Ang-2 which are believed to interact with Tie-2 based on crystal structure analysis, but which differ from the corresponding amino acid in Ang-1, were individually mutated to the corresponding hAng-1 residue. The results of this example indicate the amino acid residues of hAng-2 with which the Ang-2 preferential binding antibodies interact.
(§2) In this experiment, each of the seven hAng-2FD-mFc mutant proteins were captured (˜147-283 RU) on an anti-mouse-Fc surface created through direct chemical coupling to a BIACORE™ chip. Then each Ang-2 antibody (or peptibody, as the case may be) at 100 nM was injected over the captured mFc-tagged hAng-2FD protein surface at a flowrate of 50 μl/min for 180 sec, and the dissociation of variant hAng2-FD-mFc and antibody was monitored in real time for 20 min at 25° C.

[2] = biological target: T2, Monomeric hAng-2FD (Homo sapiens, UniProt O15123); assay: SPR binding to monomeric hAng-2FD (Table 8)
T2 sequence (O15123 282-496 limits assumed): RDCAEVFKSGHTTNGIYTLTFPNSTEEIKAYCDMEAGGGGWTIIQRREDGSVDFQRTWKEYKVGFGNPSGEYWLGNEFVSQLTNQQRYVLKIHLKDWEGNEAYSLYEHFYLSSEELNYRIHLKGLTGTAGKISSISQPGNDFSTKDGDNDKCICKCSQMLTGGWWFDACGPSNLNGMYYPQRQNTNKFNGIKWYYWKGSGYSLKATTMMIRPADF
Experimental: Equilibrium dissociation constants (KD values) for the binding of selected purified Ang-2 antibodies to dimeric fibrinogen-like domain of human (SEQ ID NO: 519), mouse (Mus musculus; SEQ ID NO: 520) and monkey (Macca fascicularis; SEQ ID NO: 521) Ang-2 (Ang-2FD) conjugated to human IgG1 (SEQ ID NO:528) were determined by surface kinetics using a real-time biosensor surface plasmon resonance assay. Antibody was captured on a goat anti-mouse IgG polyclonal antibody surface, a goat anti-human κ polyclonal antibody (Southern Biotech, Birmingham, Ala.) surface or a goat anti-human IgG polyclonal antibody (Jackson Immuno Research Lab, West Grove, Pa.) surface created through direct amine coupling to a BIACORE™ CM5 sensor chip to form a captured antibody surface. Varying concentrations (ranging from 50 nM to 6.25 nM) of protein were injected at 100 μl/min over captured antibody surface for 90 seconds. Antigen-antibody binding and dissociation were monitored in real time at room temperature. Kinetic analysis was performed to calculate KD and half-life of antigen/antibody complex dissociation.
In yet another experiment, KD values for selected purified antibodies that bind to wild-type human Ang-2 (hAng-2-WT; SEQ ID NO: 518) and the fibrinogen-like domain of human Ang2 (hAng-2FD) were determined (as described above).

[3] = biological target: T3, hAng-2 WT binding to Tie-2 (Homo sapiens, UniProt O15123); assay: ELISA blocking of full-length hAng-2 WT binding to hTie-2-mFc; type: biochemical
T3 construct: Full-length human Ang-2 or Ang-1 protein conjugated to 6× histidine tag (R&D Systems, Minneapolis, Minn.); purchased R&D Systems
T3 sequence (O15123 19-496): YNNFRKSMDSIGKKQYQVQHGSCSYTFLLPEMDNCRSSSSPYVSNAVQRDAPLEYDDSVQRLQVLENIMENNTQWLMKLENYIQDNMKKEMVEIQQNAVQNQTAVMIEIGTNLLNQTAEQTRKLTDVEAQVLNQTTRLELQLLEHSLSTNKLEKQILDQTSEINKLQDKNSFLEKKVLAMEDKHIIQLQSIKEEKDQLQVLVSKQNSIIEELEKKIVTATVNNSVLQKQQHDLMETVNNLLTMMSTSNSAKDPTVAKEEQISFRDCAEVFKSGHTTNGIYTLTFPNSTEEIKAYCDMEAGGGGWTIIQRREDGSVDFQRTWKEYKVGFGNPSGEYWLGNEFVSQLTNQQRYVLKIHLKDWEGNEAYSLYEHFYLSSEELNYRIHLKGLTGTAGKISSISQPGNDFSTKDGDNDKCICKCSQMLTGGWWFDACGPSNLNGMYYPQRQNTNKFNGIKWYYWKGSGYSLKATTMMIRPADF
Experimental: The ELISA experiments shown in this Example were conducted in a similar manner to the experiments of Example 5. Briefly, hTie-2-mFc (a chimeric construct consisting of human Tie-2 conjugated to mouse IgG; SEQ ID NO:525) was coated onto 96-well plates at a concentration of 2 μg/ml and incubated overnight followed by washing four times in wash buffer (PBS with 0.05% Tween-20). The plate was then blocked with PBS (Irvine Scientific, Santa Ana, Calif.) containing 0.5% BSA (Sigma-Aldrich Corp., St. Louis, Mo.) for one hour at room temperature. In a separate plate, purified anti-Ang-2 antibodies and control constructs, at a starting concentration of 300 nM, were serially diluted by a factor of three across the plate. Full-length human Ang-2 or Ang-1 protein conjugated to 6× histidine tag (R&D Systems, Minneapolis, Minn.) were added to a final concentration of 0.6 nM and incubated for one hour at room temperature. The antibody/antigen mixture was then added to the plate containing hTie-2-mFc and incubated for one hour at room temperature. Detection of Ang-2-His or Ang-1-His bound to hTie-2-mFc protein was determined with Horse-Radish Peroxidase (HRP) conjugated to a-Penta-His antibody (Qiagen, Valencia, Calif.) and developed by standard colorimetric response using tetramethylbenzidine (TMB) substrate (BD Biosciences, San Jose, Calif.). Absorbance was read at OD450 for 0.1 sec. […]

[4] = biological target: T4, hAng-2FD-mFc K-432-N (Homo sapiens, UniProt O15123, K432N); assay: Ang-2FD-mFc point mutant binding experiment (SPR), K-432-N; details: K-432-N mutant captured; antibody/peptibody at 100 nM; 25° C.
T4 construct: made in house
Excerpt: as §1, §2

T4 sequence (O15123 with tags, fused parts or gaps K432N): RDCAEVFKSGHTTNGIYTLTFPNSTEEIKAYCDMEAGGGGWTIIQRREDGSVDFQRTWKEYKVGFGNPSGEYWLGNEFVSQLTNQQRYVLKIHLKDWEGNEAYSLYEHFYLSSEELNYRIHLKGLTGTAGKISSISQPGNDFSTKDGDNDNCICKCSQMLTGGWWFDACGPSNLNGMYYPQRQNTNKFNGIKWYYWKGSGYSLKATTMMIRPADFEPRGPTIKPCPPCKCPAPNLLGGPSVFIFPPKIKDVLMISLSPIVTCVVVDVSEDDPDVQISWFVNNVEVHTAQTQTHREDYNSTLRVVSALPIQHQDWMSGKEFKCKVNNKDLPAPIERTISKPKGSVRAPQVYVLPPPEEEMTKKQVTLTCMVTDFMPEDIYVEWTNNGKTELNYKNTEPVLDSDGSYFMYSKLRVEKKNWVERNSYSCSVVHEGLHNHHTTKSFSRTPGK
T1 sequence (O15123 with tags, fused parts or gaps I434M): as the sequence (O15123 with tags, fused parts or gaps K432N) above, with N151K, I153M counted along it

**Q.** “H1H685P: human anti-Ang-2 antibody, HCVR/LCVR SEQ ID NOs 18/20; also referred to as mAb1 [Antibody H1H685P]” was tested. Which Kd [1] did it give?
**A.** 0.0179 nM

**Q.** And the RU [1]?
**A.** 235.95 RU

**Q.** And the Kd [2]?
**A.** 0.578 nM

**Q.** And the IC50 ([3]; 0.6 nM hAng-2-His, read-out: (1) Blocking hAng-2 WT to Tie-2 IC50)?
**A.** 0.129 nM

**Q.** And the “(3) Fold Difference in hAng-1 Blocking IC50 Compared to h-Ang-2 Blocking IC50” value ([3]; hAng-1 blocking IC50 divided by hAng-2 blocking IC50)?
**A.** >2318

**Q.** And the Kd [4]?
**A.** 0.014 nM

**Q.** And the RU [4]?
**A.** 152.68 RU

Reference: US9926369B2, “Methods for treating hepatocellular cancer by administering an anti-Ang-2 antibody” (Regeneron Pharmaceuticals, Inc., priority 2009, dated 2018)
